Test results taken from the supplement of paper PMC10126150.
± gives the standard deviation of the averaged measurements.

test system: ATP; assay: switch fluorescence ratio, 500 uM ATP over buffer (Cy3 cluster intensity, sum of 5 cycles each) (fold (ratio)); higher = stronger signal-on switching upon ATP binding; sequences stand for … in TCGTCGGCAGCGTCAGATGTGTATAAGAGACAGTTTTTTTTTTTTTTTTTTTTTTTTT…TC; conditions: aptamer strand: ATP DNA aptamer (quencher-CACCTGGGGGAGTATTGCGGAGGAAGG + anchor), 100 nM annealed; ATP concentration: 500 uM
In short: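 Switching-strand clusters labelled with Cy3 on a modified Illumina MiSeq flow-cell were annealed to 100 nM quencher-labelled ATP aptamer, imaged in selection buffer, and re-imaged after 15 min with 500 uM ATP at 22 °C. This was done over five cycles with NaOH stripping and re-annealing in between. The fluorescence ratio is summed target-cycle over summed buffer-cycle Cy3 intensity per cluster, averaged per switch-domain sequence, excluding clusters outside 100-1000 RFU.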
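Also: ATP exposure 15 min at 22 °C before imaging.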

Sequence	switch fluorescence ratio
TGTTTTGGTT	0.991 ± 0.025
TGTTTTGTGG	1.02 ± 0.018
TGTTTTTAGA	1.01 ± 0.019
TGTTTTTGGG	0.989 ± 0.029
TGTTTTTGGT	0.978 ± 0.016
TGTTTTTTAA	0.99 ± 0.044
TGTTTTTTGC	0.995 ± 0.056
TTAAAAAATT	1.02 ± 0.039
TTAAAAACCT	1.65 ± 0.62
TTAAAAAGTG	1.02 ± 0.068
TTAAAAATCG	1.02 ± 0.037
TTAAAAATGT	0.958 ± 0.069
TTAAAACTAT	1.015 ± 0.0089
TTAAAAGAGG	1.01 ± 0.014
TTAAAAGGTC	1.027 ± 0.0083
TTAAAATCAC	1.09 ± 0.077
TTAAAATCAG	1.01 ± 0.027
TTAAAATCGC	0.957 ± 0.022
TTAAAATTCT	1.04 ± 0.06
TTAAACCGCT	1.08 ± 0.053
TTAAACGGAC	1.36 ± 0.021
TTAAACGGTA	1.03 ± 0.029
TTAAACTTAT	1.047 ± 0.0024
TTAAAGATTG	0.987 ± 0.014
TTAAAGATTT	1.07 ± 0.098

Sequence	switch fluorescence ratio
TTAAAGCACG	1.07 ± 0.023
TTAAAGGCGT	0.982 ± 0.021
TTAAAGGGTA	0.992 ± 0.054
TTAAAGGTGG	0.984 ± 0.042
TTAAATATGG	1.02 ± 0.033
TTAAATGAAT	0.991 ± 0.022
TTAAATGTGT	1.02 ± 0.018
TTAAATGTTT	0.994 ± 0.015
TTAAATTGGT	0.99 ± 0.025
TTAAATTTGG	1.01 ± 0.027
TTAACAAGGA	1.018 ± 0.0085
TTAACCAGCA	1.05 ± 0.032
TTAACCCGCC	1.16 ± 0.14
TTAACGGTCG	1.02 ± 0.072
TTAACGTGTG	0.975 ± 0.029
TTAACTTGAG	0.9831 ± 0.0047
TTAAGAAGCC	0.987 ± 0.049
TTAAGACTTT	1.02 ± 0.032
TTAAGATATT	0.9797 ± 0.0066
TTAAGATGAG	0.961 ± 0.035
TTAAGATTCC	1.1 ± 0.028
TTAAGATTTA	0.9933 ± 0.0077
TTAAGCACCT	1.304 ± 0.013
TTAAGCCCAT	1 ± 0.011
TTAAGCCGGT	1.04 ± 0.036

Sequence	switch fluorescence ratio
TTAAGCGGCG	0.992 ± 0.016
TTAAGGCCAC	1.034 ± 0.0055
TTAAGGCCGG	1.03 ± 0.025
TTAAGGCGCT	0.976 ± 0.019
TTAAGGCGGA	1.04 ± 0.023
TTAAGGCTTT	0.984 ± 0.025
TTAAGGGAAA	1.02 ± 0.02
TTAAGGGGAA	1.06 ± 0.063
TTAAGGGTAA	0.967 ± 0.047
TTAAGGGTAT	1 ± 0.011
TTAAGGGTGT	1.02 ± 0.04
TTAAGGTCCG	0.987 ± 0.047
TTAAGGTGTG	1.02 ± 0.041
TTAAGGTTAG	0.976 ± 0.024
TTAAGTCAAG	0.98687 ± 0.00044
TTAAGTCCGC	1.17 ± 0.034
TTAAGTGGAA	0.997 ± 0.049
TTAAGTGTAC	1.03 ± 0.026
TTAAGTGTGG	0.973 ± 0.031
TTAAGTGTTT	1 ± 0.022
TTAAGTTAGC	1.06 ± 0.045
TTAAGTTGAG	0.983 ± 0.021
TTAAGTTTGT	0.994 ± 0.022
TTAAGTTTTG	1.016 ± 0.0078
TTAATAAAC	1.01 ± 0.017

Sequence	switch fluorescence ratio
TTAATAAAGG	1.02 ± 0.018
TTAATAACGG	1.04 ± 0.06
TTAATAAGCT	0.978 ± 0.022
TTAATAAGTG	0.964 ± 0.028
TTAATAATTC	0.996 ± 0.032
TTAATACCGC	1.12 ± 0.022
TTAATATGCT	0.997 ± 0.049
TTAATATGGT	0.99 ± 0.04
TTAATATTTT	0.985 ± 0.026
TTAATCTAGC	0.991 ± 0.021
TTAATCTGGG	0.992 ± 0.016
TTAATCTTTC	1.09 ± 0.05
TTAATGAGTG	0.99 ± 0.015
TTAATGGTTG	0.975 ± 0.032
TTAATGGTTT	1.11 ± 0.17
TTAATGTGGC	0.986 ± 0.015
TTAATTAAGT	0.987 ± 0.04
TTAATTACCA	0.984 ± 0.029
TTAATTATCT	1.01 ± 0.051
TTAATTCGCT	1.04 ± 0.098
TTAATTGTTC	1.06 ± 0.068
TTAATTTAAA	0.9752 ± 0.0031
TTAATTTGTC	1.03 ± 0.061
TTAATTTTTT	0.995 ± 0.037
TTACAAAATA	1.03 ± 0.048

Sequence	switch fluorescence ratio
TTACAAATTT	0.9647 ± 0.0066
TTACAAGATT	1.03 ± 0.0047
TTACACGAGA	1.054 ± 0.0057
TTACACGTTC	1.03 ± 0.018
TTACATATGA	1.04 ± 0.016
TTACATTTTT	1.05 ± 0.06
TTACCCCCGT	1.56 ± 0.079
TTACCCGTCA	1.06 ± 0.044
TTACCCTATA	1.07 ± 0.029
TTACCGAGGT	1.03 ± 0.031
TTACCTGGCT	1.1 ± 0.059
TTACGAACCG	1.23 ± 0.026
TTACGACGAC	2.21 ± 0.096
TTACGATGGT	1.003 ± 0.0032
TTACGGCCCG	1.05 ± 0.051
TTACGGGTAA	0.99 ± 0.01
TTACGGTAAC	2.05 ± 1.1
TTACGGTATG	1.09 ± 0.035
TTACGGTGGA	0.9963 ± 0.0033
TTACGTCATA	1.67 ± 0.95
TTACGTGCAT	1.01 ± 0.011
TTACGTTCCT	1.5 ± 0.13
TTACGTTTGT	1.02 ± 0.07
TTACGTTTTT	0.999 ± 0.011
TTACTAAGCT	1.03 ± 0.069

Sequence	switch fluorescence ratio
TTACTAGGCC	1.01 ± 0.034
TTACTAGTTT	0.981 ± 0.02
TTACTATGGC	0.966 ± 0.032
TTACTATGTT	0.999 ± 0.018
TTACTGATCC	1.04 ± 0.019
TTACTGCATT	1.11 ± 0.014
TTACTGCTTT	1.02 ± 0.025
TTACTGGTTA	1.01 ± 0.029
TTACTTACGA	1.4167 ± 0.00061
TTACTTATAA	1.04 ± 0.018
TTACTTCAGG	1.032 ± 0.0026
TTACTTGCAT	1.065 ± 0.0059
TTACTTGTGG	0.988 ± 0.024
TTACTTGTTT	1 ± 0.023
TTACTTTCCT	1.12 ± 0.086
TTACTTTGGC	1 ± 0.022
TTACTTTGTT	1.02 ± 0.023
TTAGAACATC	1.009 ± 0.0053
TTAGAAGGCA	1.03 ± 0.036
TTAGAAGGG	0.965 ± 0.012
TTAGAAGGGG	0.993 ± 0.015
TTAGAAGTCA	1.0063 ± 0.00067
TTAGAATTAA	0.9724 ± 0.0063
TTAGACATAT	1.02 ± 0.021
TTAGACGAGC	0.986 ± 0.031

Sequence	switch fluorescence ratio
TTAGAGAACC	1.01 ± 0.016
TTAGAGAGTG	0.984 ± 0.044
TTAGAGCGTT	1.72 ± 1
TTAGAGGACG	1.02 ± 0.025
TTAGAGGGTG	1.12 ± 0.018
TTAGAGTTGT	0.999 ± 0.034
TTAGAGTTTA	0.975 ± 0.014
TTAGATAGGA	0.999 ± 0.01
TTAGATCAGC	0.99 ± 0.03
TTAGATGGGA	1.005 ± 0.0047
TTAGATTGGG	0.9736 ± 0.0075
TTAGCATTTA	1.03 ± 0.013
TTAGCGGTCA	1.01 ± 0.021
TTAGCGTATG	1.01 ± 0.031
TTAGCTACCT	1.11 ± 0.19
TTAGCTATCT	1.04 ± 0.021
TTAGCTATTA	0.9858 ± 0.0043
TTAGCTGTTA	1 ± 0.016
TTAGCTTGG	0.999 ± 0.061
TTAGGAAGAT	1.36 ± 0.59
TTAGGAATGT	1.03 ± 0.047
TTAGGACAGC	1.02 ± 0.021
TTAGGAGATT	1.08 ± 0.14
TTAGGAGCGG	1.04 ± 0.047
TTAGGAGGTG	1.08 ± 0.018

Sequence	switch fluorescence ratio
TTAGGATGA	1.01 ± 0.027
TTAGGCAGTA	1.01 ± 0.067
TTAGGCCGAG	1.04 ± 0.022
TTAGGCGTGT	1.03 ± 0.031
TTAGGCTGGG	1.02 ± 0.013
TTAGGCTTGG	1.06 ± 0.067
TTAGGGAGCG	0.996 ± 0.035
TTAGGGAGTC	0.992 ± 0.037
TTAGGGCCGA	1 ± 0.031
TTAGGGCGGG	1.04 ± 0.039
TTAGGGCTCA	0.996 ± 0.027
TTAGGGGCAA	1.04 ± 0.073
TTAGGGGCAC	0.993 ± 0.018
TTAGGGGGTC	0.998 ± 0.036
TTAGGGGTCT	1.03 ± 0.019
TTAGGGTGAA	1.02 ± 0.032
TTAGGGTGCC	1.02 ± 0.034
TTAGGGTTTG	0.995 ± 0.029
TTAGGTAACG	0.977 ± 0.027
TTAGGTACGG	1.035 ± 0.01
TTAGGTGAGT	1.21 ± 0.3
TTAGGTGGAA	0.976 ± 0.012
TTAGGTGTTT	1.54 ± 0.69
TTAGGTTCTC	0.991 ± 0.015
TTAGGTTGCT	1.1 ± 0.14
